According to a protein production outcome set (Wang et al. 2014):

Assay: label from the status in PepcDB records
With “MSVGVEVLTISFVVIVIAAVIGFLARSKNVSLEQWAVGGRNIGALLIWFLLAGEIYTAFTFLGVPGYAYAFGAPAYYALSYGVLAYLTSYFILPKIWRISKKKNIMTQPDFFKERYQSTLLATIVAVVGVVFMVPYLELQVSAITDILEVMGYNVIMPAYVMIITFVLTAGYVIMNGLRSATFTAFFKDGLALIVIFSALIVIPAVQFGDLNNMMHRMVTNYSEYLYFPGHSELGLSWFVSVVLMSALGFFMWPHSFQSYISAKNDNVLKKNAVFLPVYNVLLVITVFMGFAALLYNPHLSNADDAFLIVARASFPSWWNGVVAGAITLGSMVPASVLLIASSTIISKNLYKDLINKKASDSSVKFIAQVFVAIITGVALLFAIEFPALFVNLLLLGYSGITLFFPGIVMGITWRKVTAVGVISGIITGLIVNAVFFLPLSSYSHIIYPGLVGLFADTVVTILVSLVTKAPSGEVIEEFVTA” the protein production was “failed”.
With “MSVIKIEKALKLDKVIFVDVRTEGEYEEDHILNAINMPLFKNNEHNEVGTIYKMQGKHEAIQKGFDYVSYKLKDIYLQAAELALNYDNIVIYCARGGMRSGSIVNLLSSLGVNVYQLEGGYKAYRNFVLEY” the protein production was “not failed”.
In the case of “MSVILLGLGRYVEEIVEVVSAISDVVLVERDEARLRAFLEKAPVANLRALPGSATDVGLWKEVDLEAAEAVISFLSVEATLDVARLLRKALGYRSKIVHVSKARPDPQAVRELDLEVVSIPEVLGAILRNLLQGQGIVRYPVGIGLRKGEVVEVLITESSPAVYARLRELRQPGARVALVYREGSPILPRADFRVQPGDRLLVVGDPRGVEIFVGAVIRGEPTFPRRFGSVGALCRAEDEEALYLKERLKVRDWVEACEDPKGVAEVGVFLARDRDWVRRAFQEGYPFPSFHLRGTHPYRSILVSANTEALSPLLASAMDLARIFGSEVYVLFVSRVEAFMPPEEKELLENLKVLVERARKTSGLEVHLIRKEGNPVRETLRLLKGKFNLLALGYTPGRRTAFFRPYVPQLLAQASPVSTLLVPEVNLER”, the protein production is reported as “failed”.
For “MSVLSALQYYFFYPSFFLTVIFPGLIFTLIFLLVTIWFERKAAAIVQLRYGPYYASKRLGGILQLFADAIKFVFSEIIIPNGVNQTLYAISPVLVLIFAFLPMALIPISTIPTQGSILSVYHGIFYDTQIHQGILVPYFIEYNLIGIIALESLYPILVIFLAWNTNNRFAIVGSIREAYLSVSYDVLIIISTLALGLEYHTLDVAKIVTSGIPGFIANPIAAFVFLVAMLIGSSRFPFEIVEAETELVIGPYTEYSGFLFVLTMAGSYVANLVYAILFVDLFLGGWLPFTGFVGAIFTVFKAAIVVFFAVFLRAVYGRYRIDQALRGSWKYFFPLALASLLLGVVVGYLWIR”, the protein production was “failed”.
For “MSVNDTGHSDNYTWNRQVYHRLKLALSLGLRRQLFLAVCDDLHLRNQVAARLHSTLAYPVGQVLYQSLDGKEASTSAYPRLVTLRLNLNEPNPIAQINQWLANYPPPIVGASKDNPGKPLPIPTFQLVGVEQLTKQTVASQRLFLHYLRLSEQFFAAQESSRFLESSVLLWVSRPWLSAIQQSAPQFWRWRTGVFVFAGEPTPTTQNSGHPERFSNSRSVKLGNLEQSALDELSMEGEVRSPSTTEFNFGDEVSLPTEILGNHPQPKEETPPLISELPPTQQKPQELTVRSSAANSSSLLSLSHVSQELTDLVLATINTKISSEAEDDWQPQELLLEIEELHSQSASGEILAAAYHQLGNLYRLRIEQGQSTLEDLMVAIIAYQESISYDENSPQLPDILNDLGTLYWMLYRTPPNLEEGQTYIEQGIEFYELALKIISPETHPDTYARVHNNLGTAYGDLARFASPAENWQQAVVSYSKALLHRTVESDPLKYAACQNNLGTAYWHLAQYNQPVVHLKKAIASYKQSLAHYNPQDEPLKYGMIQNNVGTAYWNLAQYEQPGENLQLAIDVYSEALKYRTAAMVPNACAATQNNLGTAYWHLANLPQTTKDVRQKLLILCINAYEEAIALAHSLSNVSLSFDLFATHNNLGLAHYQLVTDNYFSGDKGRRSHHLEAALDNHLQALNGLSKQPEAYQATFAYVVKTVRAFHNELGIQGQNLALSKVPGHLLPEILPKL”, the protein production was “failed”.
For “MSVNGAFSPCVVIPCYNHGAMMASVLVRLAPLALPVFIVDDGSDAATQHVLNLLAAENDGVTLIRLANNSGKGAAVMRGIEAVAQAGFSHALQVDADGQHQIEDAPLLLDEAKTHPDCLISGRPRYDDSVPKSRLYGRYVTHVWVWIETLSLSIKDSMCGFRVYPVAATVSLLSRKSLGRRMDFDTEIMVRLYWAGTPSRFIETAVTYPENGLSHFDALHDNLRISWMHTRLFFGMLPRIPVLLMRQRQQHWAGVSERKGLLGMRFMLAVYQRLGRGVFTLFLWPVIAFYWLTGRTARKASQSWLRQIGEYAHQQDILLPKPLNSYHHFLRFGQAMLDKIASWRGDLHWGRDIDFAPGAQEAIEHGRQKGQLILASHLGDIEVCRALAPQVSGLVINALVFTENSQRFKQVLEEIAPQAGVNLIPVSNIGPDTAIMLQQKLDAGEWVAIVGDRTAVHRQRGGVRRVVWSPFLGKEAPFPQGPFVLAAALRCPVLLMFVIREQKKLRVYCEPFADSITLPRPTRQQALQQVVDRYAERLAHYALKSPLDWFNFFDFWSLPDDDGRTAGKKESLEHHHHHH”, the protein production was “failed”.
With “MSVNPFQTMRARYFLIVFALLTVVARASNELIENTFHMQNSTFINILIFYILPITWIYFAYKKHRVAFSLFINRNETFNLVQVLYITIMLCVFSYGYLILYMYSFAWITPTFIMNALREPIMDSTGGYVYQVIMVVFIAPIIGEFVFRGFLLQRFAAKWGTSIAIIVVAILFALLHVDFLGAIVFSVVLSIVYIRTNSLLMPIAIHMLNNAFVIGASFLINKEEIMSFADFSNYTTFFPGLIIFITGLNLVLIFLFVNRKYWSKEMPAIYVEQEKSFSDVVGSK” the protein production was “failed”.
In the case of “MSVQLKCDAVNCVYNRSHLCSAEEIEVQGGETTGGDATFCGTFSSKSLGNFVSSLGNMNYSGSLKQAVSAEPIMDPKVHCNAVNCTYNDQRYCHADQVEIRNEVSHTAEELEHHHHHH”, the protein production is reported as “not failed”.
For “MSVWLLQMKTNAIITDITKSIVKMDRILVYRHTNPDPDAIGAQFGLVALLKAAYPEKLVVAMAPVPGHLAWIDTTDEQLVTPQATDLVIAVDCANHERLAGELPTGAFVIKIDHHPNHDPYGQLNWVDETYSSCSEMIYELAQAGCFTVTAAVATKLYAGIIGDTVRFSTPETSTRTLKIASALAATDIDIATISHHEMDLT”, the protein production was “failed”.
With “MSYEKEFLKDFEDWVKTQIQVNQLAMATSQEVAQEDGDERAKDAFIRYESKLDAYEFLLGKFDNYKNGKAFHDIPDELFGARHY” the protein production was “not failed”.
In the case of “MSYFDQDDKEVLAPNSDVIAATTTTATTATHGIEVATEFKPVEHPVEPLDNDLPIQCPLPEPSILNDGRIWKERVSASMRRKGDLQIVKDEAASESDGSAPKPPRPPQPNRSILPSLSAPEHNLLNLLEECNAMPPVTSKNG”, the protein production is reported as “failed”.
With “MSYIPPHKRHSKDPTKPTPVPDSLVTKFKKNLDFKSSTSSVKRNKIIYSGDSISKWFLVGSNGIEDDVPSYVKFVPLSSDSVECRKGEKPSILMNNNVQNVNMNIGERKDERTQWLLVAEKVMEDLVLAYERVKTEMKEHHHVSRLVARFGKIFFYGSQAGPVAECSLKNLNKMFSTDLPMSYLQHIKSNVVPSHGFSIDKEKETYTVKVSHYSRPNATINCKCTRKEDGRLSMYKASLEFYVDLNPVRHLVVDVSCIDKNLDMRLTLTAKREITYLSDKEIGDIKALLESATVDPNVKGGLRWPFGKALSEDGYKEFEVCHVRATIYKNKTLRLRVRETDRFNETTGTGETKREVSLTLKDIDTKIQEQNTERGCVLEMLRDALGTIWDFLHCDAYLT” the protein production was “not failed”.
For “MSYKVEAVPDSYAALGEGPHWDVDRQSLYYVDLESAGINRYDFKQNKVYRAKIEGEIFASFILPVENKPQEFAVGCGLRTVIVQWDGVSAVAKVTRTLFEVQPDLKENRLNDAKTDPNGRFYGGTMADSGDIFTQWKGELYSWQAGGQPNAIRSKVGISNGLAWDVKAKKFYFIDTNNHEVLAYDYNQSTGAVSNPKVIFDLRKIRPEGPLFPDGMTVDTDGNIYVATFNGGTVFKVNPSTGKILLEIKIPTTQITSVAFGGPNLDILYVTTANKFDQPKPAGTTFQVTGLNAKGYAGVNLKI”, the protein production was “failed”.
In the case of “MSYLDTATDLPNQTLFLEYLNIALSNARRHHAQVGVLLCQINNWSDLKRKRGDAVANAFLQEAGQKLKSNLRNGDIVSRWDKDEFIFLVSKVQDTSSLLGIAQRLMKPVLAPVTAGGRPFQPEITYGVALYPVDGEQVNDLIGHIRENLQQLLPQPTLEHHHHHH”, the protein production is reported as “failed”.
For “MSYLGGYGLIYLVTIVGYFILASFLGSFQLSSDLFNFEFYSSLSGISALMVWAFWLFLIYLNIILVVRRLHDLNKSGWMGLLLFIPVVQFFFMLYLLLASGTAGTNQYGPVRPSTFIEKLMAWLILIAILISLISTVGFFYYFSGTDTIQTPTQILQKGTEYF”, the protein production was “failed”.
In the case of “MSYRTISAEEAVMAIKSGDRVFLHTAAATPLRLIEAMVSRASHLRDVEIVSLHTEGDAPYVRPEFQESFRLNAFFVGRNVRSAVQCGYADAIPIFLSDVPAMFYDGVMPLDVALVHVSPPDRHGYCSLGVSVDATRAAVHTARHVIAQVNPNMPRTHGEGLLHVSKIHSLVEVDDPLPETPRHELTDVERQIGQHIASIVEDGATLQMGIGAIPDATLAALTNHKDLGIHSEMFSDGVVDLVEKGVVNGRCKKTHNEIIVASFLVGTRKLYDFVDDNPLVEMFGSDYVNDTKEIRKNPKVTAINSAIEIDMTGQVCADSIGTRHFSGVGGQMDFIRGAALSPGGKPIIALPATTRKGESRIVTQLKPGAGVVTTRAHVQYVVTEYGIVNLHGKNLRQRAEALATIAHPDFREEILRQAHELYGRKSNCLID”, the protein production is reported as “failed”.
In the case of “MSYSTFALCHWARDRQRGRKTVADMVHRMTQATARVIGLEDRGELAVGKRADINVIDLAQLALRPPQVCHDLPAGGRRLIQRATGYSLTMLAGEIVLRDDEPLEHHHHHH”, the protein production is reported as “not failed”.
With “MSYTPMSDLGQQGLFDITRTLLQQPDLASLCEALSQLVKRSALADNAAIVLWQAQTQRASYYASREKDTPIKYEDETVLAHGPVRSILSRPDTLHCSYEEFCETWPQLAAGGLYPKFGHYCLMPLAAGGHIFGGCEFIRYDER” the protein production was “failed”.
In the case of “MTAAPLVSVLLPVYNAGPYLAAALGSILRQDYGRLEVIAIDDGSSDNSLEILERYRQADSRVSIISRENRGLVATLNEGLAAAQGELVARMDADDVAYPWRLSRQVALFEQRPELGFCGAGVDMLIRGRIARGRPDPVFRFGRMPILAMFFTIFMHPTVVYNRKVIEDADLHYDPTYRHAEDFDLFGRLAARYPAAMMPENLLVYRVHQASVTSRHGKEMRRTHLRIVAENLEREGLAEATRDLRDIGEAVSFDTVTRAADFIVALEERIRSLPAETRPSFEAGALNLFYFLYQLVADERQPPLTHELLRRTAKWNAIRRREKYALRPGAWAPWLSLASLAAGKQADAVEYFFKSAPAAAVLASHQVG”, the protein production is reported as “failed”.
With “MTAASETFDVVVVGAGPAGGQCARRLAQAGRTVLLVDQLKTWTDHDFSSGGTPLETLDRFQLPDRVIGSRWSQLRVVTTREDHTWKSARSLGCVLDFAALRQFLAEETTTHGGSVRLGWQYRDRQQLTDGRWQIRFRDRLTSSDRWVTSRAVVDATGSARKVIYTAAEPRPDYLRGVGIEYLIEVPETVYQRFADALHFYLGHHWLPKGYSWIFPMQSGRLKVGACWFHGDHRFLKPDQPLRHYIDLLLTEQVQCPDYRLVDVHGAAIDYSGDRCDRHVQASILGIGDAVSAINFLGGEGIRHGLESADRAAQVLDAWLQGTVPDLSSYEQQIRRRFDRLWTLSLRLGMKKYLQDSDAKIDRIVRWCCALSTDDLMAILFDYRFQRLGRRLGRFFWLSVMTRLRLRWQRWRRPSHVA” the protein production was “failed”.
In the case of “MTADLFDGLDDAPRRQDIAPGAALLSGFARANERELLAAIDAVVARAPFRHMMTPGGHTMSVAMTSCGSVGWVTDRRGYRYSPNDPDSATPWPKMPAVLRDLAQRAAADVGFAGFDPDACLINRYVPGAKMALHQDKDEADFSAPIVSVSLGLPAIFQFGGMARSDKPRRYELRHGDVLVWGGPSRLVYHGVLTLKDGEHPLLGRQRINLTFRKAL”, the protein production is reported as “failed”.
